The supplement of paper PMC10567573

B1: KRT18 (parent)
chain: KSQDLAKIMADIRAQYDELARKNR

Variants of: B1
Assay: protein stability index of a GFP-peptide fusion (GPS, HEK-293T) (PSI 1-6); higher = more stable
Conditions: c terminus: a fixed tail appended
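Further: lentivirally expressed fusions sorted by FACS into six bins by GFP to DsRed ratio, PSI derived from sequencing read proportions per bin multiplied by bin number.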

Protein stability index of substitutions, site by site:
M9: K 3.8 | L 2.23 | N 4.11 | P 4.67 | Q 3.64 | R 3.8 | S 3.89 | T 3.66 | V 2.73 | W 2.38 | Y 3.08
A10: C 2.91 | D 2.57 | E 3.18 | F 2.41 | G 3.81 | H 2.75 | I 2.73 | K 2.91 | L 2.68 | M 2.3 | N 3.09 | P 4.14 | Q 2.89 | R 2.4 | S 2.84 | T 3.02 | V 3.23 | W 2.54 | Y 2.51
D11: A 1.86 | C 1.73 | E 2.14 | F 1.8 | G 2.12 | H 2.71 | I 1.88 | K 1.8 | L 1.52 | M 2.02 | N 2.84 | P 3.56 | Q 2.96 | R 2.85 | S 2.21 | T 2.02 | V 2.14 | W 1.88 | Y 1.7
I12: A 4 | C 3.23 | D 4.77 | E 5.46 | F 3.03 | G 4.45 | H 3.55 | K 4.45 | L 2.65 | M 4.04 | N 4.26 | P 4.56 | Q 4.41 | R 3.74 | S 4.36 | T 4.07 | V 3.28 | W 1.88 | Y 3.55
R13: A 2.47 | C 2.06 | D 4.35 | E 3.75 | F 1.93 | G 2.8 | H 2.53 | I 1.92 | K 2.92 | L 2.3 | M 1.83 | N 3.62 | P 4.12 | Q 2.85 | S 2.73 | T 2.78 | V 2.42 | W 2.79 | Y 1.75
A14: C 3.05 | D 2.8 | E 2.89 | F 2.74 | G 3.39 | H 3.16 | I 3.21 | K 2.4 | L 2.73 | M 2.67 | N 2.73 | P 3.66 | Q 2.14 | R 2.71 | S 3.63 | T 2.58 | V 2.68 | W 1.97 | Y 3.27
Q15: A 2.06 | C 2.37 | D 3.49 | E 2.01 | F 2.34 | G 3.43 | H 1.97 | I 1.96 | K 2.4 | L 1.9 | M 2.14 | N 3 | P 3.84 | R 2.6 | S 2.57 | T 2.24 | V 2.06 | W 2.46 | Y 2.16
Y16: A 4.24 | C 3.82 | D 4.38 | E 4.37 | F 2.83 | G 3.28 | H 3.32 | I 3.08 | K 3.93 | L 3.65 | M 3.31 | N 4.13 | P 4.47 | Q 3.89 | R 3.79 | S 3.88 | T 3.9 | V 3.58 | W 2.67
D17: A 2.54 | C 1.96 | E 1.85 | F 2.14 | G 2.72 | H 2.67 | I 2.01 | K 2.87 | L 2.29 | M 1.51 | N 2.65 | P 3.16 | Q 2.13 | R 2.61 | S 2.41 | T 2.27 | V 2.2 | W 1.92 | Y 2.37
E18: A 2.59 | C 2.45 | D 2.16 | F 2.74
